Experimental data from patent US20080170994A1 (ARMAGEN TECHNOLOGIES, published 2008).

Tests used:
Aβ^1-40 amyloid peptide [1] = target: T1, Aβ^1-40 amyloid peptide (human, UniProt P05067 672-711); assay: IRMA: [125I]-murine anti-Aβ MAb on plated Aβ^1-40, unlabelled antibody as competitor
T1 construct: domain: Aβ^1-40; Plated on 96-well plates in the ELISA and the IRMA; also called Aβ^1-40 peptide; 40 amino acid Aβ amyloid peptide of AD
Experimental: (§1) FIG. 34. Aβ¹⁻⁴⁰ immunoradiometric assay (IRMA) measures the binding of the [¹²⁵I]-murine anti-Aβ MAb to Aβ¹⁻⁴⁰ that is plated in wells of a 96-well plate. The murine anti-Aβ MAb is the original murine MAb against Aβ purified from hybridoma conditioned medium. In the absence of competitors of binding, approximately 20% of the total [¹²⁵I]-anti-Aβ MAb is bound to the Aβ¹⁻⁴⁰. […] The affinity of the fusion antibody for Aβ¹⁻⁴⁰ is equal to the affinity of the original murine anti-Aβ¹⁻⁴⁰ MAb
The affinity of the fusion antibody for binding to Aβ¹⁻⁴⁰ was compared to the same affinity of the murine hybridoma generated anti-Aβ MAb with an immunoradiometric assay (IMRA). In this assay, the Aβ¹⁻⁴⁰ is plated in 96-well plates, and the binding of [¹²⁵I]-murine anti-Aβ MAb to the […] is measured. […] Therefore, the affinity of the fusion antibody for Aβ¹⁻⁴⁰ is identical to that of the original 150 kDa hetero-tetrameric murine anti-Aβ MAb. This was a surprising finding, since the affinity of a ScFv for the target antigen is generally much lower than for the full, tetrameric MAb molecule. Owing to the bivalency of the tetrameric MAb, the affinity for the antigen is higher than the affinity of the monomeric ScFv. […]

[2] = target: T2, human insulin receptor (HIR) extracellular domain (ECD) (human, UniProt P06213 28-956, limits assumed); assay: ELISA on affinity purified HIR ECD
T2 construct: extracellular domain; Solid phase antigen of the HIR ELISA; also called HIR ECD; purified human insulin receptor
Experimental: The affinity of the fusion antibody for binding to the human insulin receptor (HIR) extracellular domain (ECD) was measured with an ELISA using affinity purified HIR ECD obtained from medium conditioned by CHO cells permanently transfected with the HIR ECD gene. […] The 50% saturation of binding, ED₅₀, is 0.53±0.02 nM for the chimeric HIRMAb. The ED₅₀ of fusion antibody binding to the HIR is 1.0±0.1 nM (FIG. 35). […] The HIR at the BBB is an heterotetrameric molecule comprised of two alpha and two beta chains. […] There is specific binding of the [¹²⁵I]-fusion antibody to human brain capillaries in a time-dependent process, whereas binding of the [¹²⁵I]-mouse anti-Aβ antibody is constant with time, and is non-specific (FIG. 36B).

[3] = target: BBB insulin receptor of the Rhesus monkey (Rhesus monkey, UniProt Q28516 1-210); assay: cell-based or functional assay
Aβ^1-40 amyloid peptide [4] = target: T1, Aβ^1-40 amyloid peptide; assay: IRMA: competition with [125I]-murine anti-Aβ MAb on plated Aβ^1-40
Experimental: as §1
The affinity of the fusion antibody for binding to Aβ¹⁻⁴⁰ was compared to the same affinity of the murine hybridoma generated anti-Aβ MAb with an immunoradiometric assay (IMRA). In this assay, the Aβ¹⁻⁴⁰ is plated in 96-well plates, and the binding of [¹²⁵I]-murine anti-Aβ MAb to the […] is measured. […] Therefore, the affinity of the fusion antibody for Aβ¹⁻⁴⁰ is identical to that of the original 150 kDa hetero-tetrameric murine anti-Aβ MAb. This was a surprising finding, since the affinity of a ScFv for the target antigen is generally much lower than for the full, tetrameric MAb molecule. Owing to the bivalency of the tetrameric MAb, the affinity for the antigen is higher than the affinity of the monomeric ScFv. The high affinity of the ScFv moiety of the fusion antibody for Aβ¹⁻⁴⁰ is attributed to the design of the fusion antibody molecule, which places the ScFv in a dimeric or bivalent conformation (FIG. 26).

Aβ^1-40 amyloid peptide [5] = target: T1, Aβ^1-40 amyloid peptide; assay: IRMA on plated Aβ^1-40

B1: murine anti-Aβ MAb (hybridoma generated) (antibody, V domains shown)
VH: QVQLQQSGAELVKPGATVKLSCKASGYSFNSHYIYWVKQRPGQGLEWIGEINPSNGAMNFNEKFKNKATLTVDKSSSTAYMQLSSLTSEDSAVYYCVRDPTSYWGQGTLVTVSA
VL: DVVMTQTPLSLPVSLGDQASISCRSSQSLVHSYGNTYLHWYLQKPGQSPKLLIYKVSNRFSGVPDRFSGSGSGTDFTLKISRVEAEDLGVYFCSQSTHVPYTFGGGTKLEIKR
notes: 150 kDa hetero-tetrameric mouse IgG (gamma heavy chain, kappa light chain) purified from hybridoma medium; also called mouse anti-Aβ MAb; mouse anti-Aβ antibody
B1 showed a Kd (Aβ^1-40 amyloid peptide [1]) of 32 nM.

B2: chimeric HIRMAb (chimeric monoclonal antibody to the human insulin receptor) (antibody, human IgG1, kappa, V domains shown)
VH: QVQLQQSGPELVKPGALVKISCKASGYTFTNYDIHWVKQRPGQGLEWIGWIYPGDGSTKYNEKFKGKATLTADKSSSTAYMHLSSLTSEKSAVYFCAREWAYWGQGTLVTVSA
VL: DIQMTQSPSSLSASLGERVSLTCRASQDIGGNLYWLQQGPDGTIKRLIYATSSLDSGVPKRFSGSRSGSDYSLTISSLESEDFVDYYCLQYSSSPWTFGGGTKMEIKR
B2 gave an EC50 [2] of 0.53 nM.

B3: anti-Aβ ScFv/chimeric HIRMAb fusion antibody (bispecific antibody, human IgG1, kappa)
heavy: not shown
light: DIQMTQSPSSLSASLGERVSLTCRASQDIGGNLYWLQQGPDGTIKRLIYATSSLDSGVPKRFSGSRSGSDYSLTISSLESEDFVDYYCLQYSSSPWTFGGGTKMEIKRTVAAPSVFIFPPSDEQLKSGTASVVCLLNNFYPREAKVQWKVDNALQSGNSQESVTEQDSKDSTYSLSSTLTLSKADYEKHKVYACEVTHQGLSSPVTKSFNRGEC
notes: also called fusion protein; HIRMAb-mAβScFv
In the case of B3, the “brain volume of distribution (VD) in Rhesus monkey at 3 hours after intravenous injection” value [3] is reported as greater than 10 fold, the EC50 [2] is reported as 1 nM and the Kd (Aβ^1-40 amyloid peptide [4]) is reported as 24 nM.

B4: Ala-497 form of the antibody fusion protein (N497A) (bispecific antibody, human IgG1, kappa)
heavy: not shown
light: B3 light
notes: also called fusion antibody with the N497A mutation
B4 was tested, and the “fold decrease of affinity against the Asn-497 fusion antibody” value (Aβ^1-40 amyloid peptide [5]) was roughly 6 fold and the Ki (Aβ^1-40 amyloid peptide [4]) was 182 nM.

B5: Ala-499 form of the antibody fusion protein (S499A) (bispecific antibody, human IgG1, kappa)
heavy: not shown
light: B3 light
notes: also called fusion antibody with the S499A mutation
For B5, the “fold decrease of affinity against the Ser-499 fusion antibody” value (Aβ^1-40 amyloid peptide [5]) was 8 fold and the Ki (Aβ^1-40 amyloid peptide [4]) was 271 nM.
